Among the data in patent publication US20090068103 are Kd values, retold here.

This series addresses Tenascin-C (TN-C) (Homo sapiens) (UniProt P24821). Briefly: FP. As to conditions: 5'-C6 amine conjugated to MAG2-DO3A chelator; (CH2CH2O)6 spacer between GGGAGGACG and CGUCGC; 3'-3'-T cap; nitrocellulose filter binding, TN-C titrated 1.25e-7 to 6.35e-12 M.

Tenascin-C (TN-C) (Homo sapiens), sequence (P24821 23-2201): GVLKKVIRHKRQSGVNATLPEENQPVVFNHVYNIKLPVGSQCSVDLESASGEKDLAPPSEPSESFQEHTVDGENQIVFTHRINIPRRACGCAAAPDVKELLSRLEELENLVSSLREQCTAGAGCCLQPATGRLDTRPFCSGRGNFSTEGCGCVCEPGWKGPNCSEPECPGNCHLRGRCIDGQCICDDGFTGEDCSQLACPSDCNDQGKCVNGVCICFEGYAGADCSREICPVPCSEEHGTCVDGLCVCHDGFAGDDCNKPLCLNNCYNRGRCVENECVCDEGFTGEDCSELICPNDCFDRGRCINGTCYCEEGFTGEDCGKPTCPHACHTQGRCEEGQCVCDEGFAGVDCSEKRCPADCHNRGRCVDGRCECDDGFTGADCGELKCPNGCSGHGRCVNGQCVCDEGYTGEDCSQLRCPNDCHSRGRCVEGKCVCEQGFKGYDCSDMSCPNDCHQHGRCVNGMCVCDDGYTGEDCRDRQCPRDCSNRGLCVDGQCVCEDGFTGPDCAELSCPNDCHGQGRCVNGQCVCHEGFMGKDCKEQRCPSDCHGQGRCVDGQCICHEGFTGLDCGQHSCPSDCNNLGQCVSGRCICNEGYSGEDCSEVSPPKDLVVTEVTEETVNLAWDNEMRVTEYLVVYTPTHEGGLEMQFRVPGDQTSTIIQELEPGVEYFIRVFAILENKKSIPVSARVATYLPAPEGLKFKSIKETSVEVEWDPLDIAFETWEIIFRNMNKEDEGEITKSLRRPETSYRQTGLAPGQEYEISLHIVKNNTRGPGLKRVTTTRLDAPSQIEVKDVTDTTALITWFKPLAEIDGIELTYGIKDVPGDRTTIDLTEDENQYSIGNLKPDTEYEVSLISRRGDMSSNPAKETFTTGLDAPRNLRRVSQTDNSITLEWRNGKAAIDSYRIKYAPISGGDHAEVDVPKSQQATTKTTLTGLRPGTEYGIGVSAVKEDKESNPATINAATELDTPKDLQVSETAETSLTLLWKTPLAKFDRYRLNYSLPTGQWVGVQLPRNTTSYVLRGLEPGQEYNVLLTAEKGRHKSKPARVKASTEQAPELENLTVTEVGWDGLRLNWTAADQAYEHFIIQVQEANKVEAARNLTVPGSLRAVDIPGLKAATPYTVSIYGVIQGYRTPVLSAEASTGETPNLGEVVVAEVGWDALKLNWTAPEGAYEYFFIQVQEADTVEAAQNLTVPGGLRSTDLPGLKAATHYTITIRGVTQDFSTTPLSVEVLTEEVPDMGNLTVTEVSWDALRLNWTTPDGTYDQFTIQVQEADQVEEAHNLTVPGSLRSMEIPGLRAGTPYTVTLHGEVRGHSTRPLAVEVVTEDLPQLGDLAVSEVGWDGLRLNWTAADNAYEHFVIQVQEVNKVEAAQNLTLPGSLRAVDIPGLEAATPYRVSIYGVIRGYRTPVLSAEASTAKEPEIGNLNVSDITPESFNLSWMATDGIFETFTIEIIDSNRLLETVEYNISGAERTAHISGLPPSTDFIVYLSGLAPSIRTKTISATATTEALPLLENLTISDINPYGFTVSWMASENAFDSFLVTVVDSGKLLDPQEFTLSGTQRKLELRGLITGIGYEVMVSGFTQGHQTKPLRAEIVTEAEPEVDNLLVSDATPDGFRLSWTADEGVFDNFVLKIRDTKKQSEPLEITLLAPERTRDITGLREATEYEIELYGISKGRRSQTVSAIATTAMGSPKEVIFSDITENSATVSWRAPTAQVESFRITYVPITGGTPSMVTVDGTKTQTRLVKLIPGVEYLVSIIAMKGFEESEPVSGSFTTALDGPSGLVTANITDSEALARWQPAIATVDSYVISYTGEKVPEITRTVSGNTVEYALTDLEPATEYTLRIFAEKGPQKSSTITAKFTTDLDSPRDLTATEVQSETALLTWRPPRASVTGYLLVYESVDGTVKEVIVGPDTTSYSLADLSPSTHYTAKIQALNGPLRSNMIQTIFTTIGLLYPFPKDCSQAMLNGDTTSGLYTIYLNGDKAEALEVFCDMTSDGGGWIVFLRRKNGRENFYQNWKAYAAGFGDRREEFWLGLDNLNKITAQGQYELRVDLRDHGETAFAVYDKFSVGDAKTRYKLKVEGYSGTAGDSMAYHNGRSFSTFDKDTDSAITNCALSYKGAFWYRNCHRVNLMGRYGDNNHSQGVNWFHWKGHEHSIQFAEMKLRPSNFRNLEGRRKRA

The term Kd denotes the free concentration of one partner at which half of the binding sites on the other are occupied at equilibrium, for simple one-to-one binding. Lower therefore signals tighter binding. “GGGAGGACGCGUCGCCGUAAUGGAUGUUUUGCUCCCUG [111In-TTA1-MAG2-DO3A]” displayed a Kd of 1 nM.
